This note sets out measurements from patent US20240383990A1 (DIAGONAL THERAPEUTICS, published 2024).

Common to all, as to experiment: cell-based or functional assay
Experiment [1] deals with T1, ALK1 / BMPRII receptor pair (BMPR Type I receptor ALK1 and BMPR Type II receptor BMPRII) on cells (UniProt P37023 22-503; Q13873 27-1038, limits assumed).
Experiment [2] concerns the target T1, ALK1 / BMPRII receptor pair (BMPR Type …). This is another data set of the same source.
The target is the same in experiment [3]. The source holds these as a separate data set.

Where two headings read alike, the source gives them in different places.

T1 sequence (P37023 22-503 limits assumed, chain 1 of 2): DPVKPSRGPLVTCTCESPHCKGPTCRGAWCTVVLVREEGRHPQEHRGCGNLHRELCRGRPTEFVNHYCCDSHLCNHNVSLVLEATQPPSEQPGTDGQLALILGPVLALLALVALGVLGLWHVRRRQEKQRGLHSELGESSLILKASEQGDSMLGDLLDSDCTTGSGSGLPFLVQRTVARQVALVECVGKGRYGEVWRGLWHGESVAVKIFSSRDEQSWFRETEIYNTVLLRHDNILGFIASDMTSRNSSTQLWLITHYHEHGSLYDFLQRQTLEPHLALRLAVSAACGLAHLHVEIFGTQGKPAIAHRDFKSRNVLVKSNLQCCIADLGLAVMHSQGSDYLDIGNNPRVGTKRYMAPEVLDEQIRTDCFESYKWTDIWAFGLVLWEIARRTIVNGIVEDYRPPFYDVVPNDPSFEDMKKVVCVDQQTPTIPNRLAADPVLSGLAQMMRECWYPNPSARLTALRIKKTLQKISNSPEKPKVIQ
T1 sequence (Q13873 27-1038 limits assumed, chain 2 of 2): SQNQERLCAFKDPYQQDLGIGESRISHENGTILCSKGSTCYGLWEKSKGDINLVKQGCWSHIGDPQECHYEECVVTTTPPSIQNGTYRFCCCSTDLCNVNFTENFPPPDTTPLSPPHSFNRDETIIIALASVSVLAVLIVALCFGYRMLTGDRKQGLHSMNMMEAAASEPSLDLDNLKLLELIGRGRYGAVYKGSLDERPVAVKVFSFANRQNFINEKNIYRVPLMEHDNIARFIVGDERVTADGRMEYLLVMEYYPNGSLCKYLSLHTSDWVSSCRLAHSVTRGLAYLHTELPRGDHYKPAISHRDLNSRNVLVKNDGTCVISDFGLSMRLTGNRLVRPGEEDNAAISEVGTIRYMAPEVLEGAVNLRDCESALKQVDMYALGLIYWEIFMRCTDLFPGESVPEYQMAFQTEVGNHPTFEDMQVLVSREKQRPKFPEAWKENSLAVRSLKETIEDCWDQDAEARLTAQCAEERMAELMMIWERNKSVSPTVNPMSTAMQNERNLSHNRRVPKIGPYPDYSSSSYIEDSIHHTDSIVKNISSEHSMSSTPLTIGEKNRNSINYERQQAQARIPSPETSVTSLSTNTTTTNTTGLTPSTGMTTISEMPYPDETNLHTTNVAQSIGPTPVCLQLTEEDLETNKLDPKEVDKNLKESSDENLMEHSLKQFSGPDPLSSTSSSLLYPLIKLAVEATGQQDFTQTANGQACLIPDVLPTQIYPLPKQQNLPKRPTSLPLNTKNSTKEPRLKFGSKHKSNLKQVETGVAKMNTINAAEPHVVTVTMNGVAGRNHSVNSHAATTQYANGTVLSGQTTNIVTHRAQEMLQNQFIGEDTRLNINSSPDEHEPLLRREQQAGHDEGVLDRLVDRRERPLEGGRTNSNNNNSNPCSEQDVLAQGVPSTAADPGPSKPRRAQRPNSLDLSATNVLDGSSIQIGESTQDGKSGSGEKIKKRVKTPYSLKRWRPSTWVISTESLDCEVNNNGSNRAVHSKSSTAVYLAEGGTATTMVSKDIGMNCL

B1: PRO004 (bispecific antibody)
chain: EVQLLESGGGLVQPGGSLRLSCAASGFTFSNAWMNWVRQAPGKGLEWVSSISSSSSYIYYADSVKGRFTISRDNSKNTLYLQMNSLRAEDTAVYYCARAVAAGGMFWGLDQWGQGTLVTVTSSGGGGSGGGGSGGGGSQSVLTQPPSASGTPGQRVTISCSGSRSNIGSNSVHWYQQLPGTAPKLLIYGNSNRPSGVPDRFSGSKSGTSASLAISGLRSEDEADYYCQSYDSSLNDHVVFGGGTKLTVLDKTHTCPPCPAPEAAGAPSVFLFPPKPKDTLMISRTPEVTCVVVDVSHEDPEVKFNWYVDGVEVHNAKTKPREEQYNSTYRVVSVLTVLHQDWLNGKEYKCKVSNKALPAPIEKTISKAKGQPREPQVYTLPPSRDELTKNQVSLTCLVKGFYPSDIAVEWESNGQPENNYKTTPPVLDSDGSFFLYSKLTVDKSRWQQGNVFSCSVMHEALHNHYTQKSLSLSPGGGGGSGGGGSEVQLLESGGGLVQPGGSLRLSCAASGFTFSIYAMSWVRQAPGKGLEWVSAISGSGGSTYYADSVKGRFTISRDNSKNTLYLQMNSLRAEDTAVYYCARDFDYWGQGTLVTVTSSGGGGSGGGGSGGGGSQSVLTQPPSASGTPGQRVTISCSGSSSNIGSNYVYWYQQLPGTAPKLLIYGNINRPSGVPDRFSGSKSGTSASLAISGLRSEDEADYYCAAWDDSLNGRVFGGGTKLTVL
Turning to B1, in experiment [1], the “Agonist activity, % Emax BMP9” value worked out at 46 % Emax BMP9; the “Agonist activity, EC50” value turned out to be 0.5 nM; the “Agonist activity, EMAX (RLU)” value came out at 1.21e+06 RLU. Further, in experiment [2], the “Agonist activity, % Emax BMP9” value came out at 46 % Emax BMP9; the “Agonist activity, EC50” value was 0.5 nM; the “Agonist activity, EMAX (RLU)” value turned out to be 1.21e+06 RLU.

B2: PRO003 (bispecific antibody)
chain: EVQLLESGGGLVQPGGSLRLSCAASGFTFSIYAMSWVRQAPGKGLEWVSAISGSGGSTYYADSVKGRFTISRDNSKNTLYLQMNSLRAEDTAVYYCARDFDYWGQGTLVTVTSSGGGGSGGGGSGGGGSQSVLTQPPSASGTPGQRVTISCSGSSSNIGSNYVYWYQQLPGTAPKLLIYGNINRPSGVPDRFSGSKSGTSASLAISGLRSEDEADYYCAAWDDSLNGRVFGGGTKLTVLDKTHTCPPCPAPEAAGAPSVFLFPPKPKDTLMISRTPEVTCVVVDVSHEDPEVKFNWYVDGVEVHNAKTKPREEQYNSTYRVVSVLTVLHQDWLNGKEYKCKVSNKALPAPIEKTISKAKGQPREPQVYTLPPSRDELTKNQVSLTCLVKGFYPSDIAVEWESNGQPENNYKTTPPVLDSDGSFFLYSKLTVDKSRWQQGNVFSCSVMHEALHNHYTQKSLSLSPGGGGGSGGGGSEVQLLESGGGLVQPGGSLRLSCAASGFTFSNAWMNWVRQAPGKGLEWVSSISSSSSYIYYADSVKGRFTISRDNSKNTLYLQMNSLRAEDTAVYYCARAVAAGGMFWGLDQWGQGTLVTVTSSGGGGSGGGGSGGGGSQSVLTQPPSASGTPGQRVTISCSGSRSNIGSNSVHWYQQLPGTAPKLLIYGNSNRPSGVPDRFSGSKSGTSASLAISGLRSEDEADYYCQSYDSSLNDHVVFGGGTKLTVL
Take B2: in experiment [1], the “Agonist activity, % Emax BMP9” value was 47 % Emax BMP9; the “Agonist activity, EC50” value is 0.1 nM; the “Agonist activity, EMAX (RLU)” value was found to be 1.25e+06 RLU. In experiment [2], the “Agonist activity, % Emax BMP9” value was 47 % Emax BMP9; the “Agonist activity, EC50” value amounted to 0.1 nM; the “Agonist activity, EMAX (RLU)” value was determined as 1.25e+06 RLU.

B3: PRO006 (bispecific antibody)
chain: EVQLLESGGGLVQPGGSLRLSCAASGFTFSDYYMTWIRQAPGKGLEWVSSISGGSTYYADSRKGRFTISRDNSENTLYLQMNSLRAEDTAVYYCARDFGVAGWFGQYGMDVWGQGTLVTVSSGGGGSGGGGSGGGGSQSVLTQPPSASGTPGQRVTISCTGSSSNIGAGYDVHWYQQLPGTAPKLLIYRSNQRPSGVPDRFSGSKSGTSASLAISGLRSEDEADYYCSSYAGNYNLVFGGGTKLTVLDKTHTCPPCPAPEAAGAPSVFLFPPKPKDTLMISRTPEVTCVVVDVSHEDPEVKFNWYVDGVEVHNAKTKPREEQYNSTYRVVSVLTVLHQDWLNGKEYKCKVSNKALPAPIEKTISKAKGQPREPQVYTLPPSRDELTKNQVSLTCLVKGFYPSDIAVEWESNGQPENNYKTTPPVLDSDGSFFLYSKLTVDKSRWQQGNVFSCSVMHEALHNHYTQKSLSLSPGGGGGSGGGGSEVQLLESGGGLVQPGGSLRLSCAASGFTFSSYAMSWVRQAPGKGLEWVANINQDGSEKNYVDSMRGRFTISRDNSKNTLYLQMNSLRAEDTAVYYCAREFDYWGQGTLVTVTSSGGGGSGGGGSGGGGSQSVLAQPPSASGTPGQRVTISCSGSSSNIGSNYVYWYQQLPGTAPKLLIYGNNKRPSGVPDRFSGSKSGTSASLAISGLRSEDEADYYCAAWDDSLNGRVFGGGTKLTVL
Turning to B3, in experiment [1], the “Agonist activity, % Emax BMP9” value turned out to be 35 % Emax BMP9; the “Agonist activity, EC50” value was determined as 0.1 nM; the “Agonist activity, EMAX (RLU)” value was determined as 929000 RLU. Besides, in experiment [2], the “Agonist activity, % Emax BMP9” value came to 35 % Emax BMP9; the “Agonist activity, EC50” value is 0.1 nM; the “Agonist activity, EMAX (RLU)” value worked out at 929000 RLU.

B4: PRO005 (bispecific antibody)
chain: EVQLLESGGGLVQPGGSLRLSCAASGFTFSSYAMSWVRQAPGKGLEWVANINQDGSEKNYVDSMRGRFTISRDNSKNTLYLQMNSLRAEDTAVYYCAREFDYWGQGTLVTVTSSGGGGSGGGGSGGGGSQSVLAQPPSASGTPGQRVTISCSGSSSNIGSNYVYWYQQLPGTAPKLLIYGNNKRPSGVPDRFSGSKSGTSASLAISGLRSEDEADYYCAAWDDSLNGRVFGGGTKLTVLDKTHTCPPCPAPEAAGAPSVFLFPPKPKDTLMISRTPEVTCVVVDVSHEDPEVKFNWYVDGVEVHNAKTKPREEQYNSTYRVVSVLTVLHQDWLNGKEYKCKVSNKALPAPIEKTISKAKGQPREPQVYTLPPSRDELTKNQVSLTCLVKGFYPSDIAVEWESNGQPENNYKTTPPVLDSDGSFFLYSKLTVDKSRWQQGNVFSCSVMHEALHNHYTQKSLSLSPGGGGGSGGGGSEVQLLESGGGLVQPGGSLRLSCAASGFTFSDYYMTWIRQAPGKGLEWVSSISGGSTYYADSRKGRFTISRDNSENTLYLQMNSLRAEDTAVYYCARDFGVAGWFGQYGMDVWGQGTLVTVSSGGGGSGGGGSGGGGSQSVLTQPPSASGTPGQRVTISCTGSSSNIGAGYDVHWYQQLPGTAPKLLIYRSNQRPSGVPDRFSGSKSGTSASLAISGLRSEDEADYYCSSYAGNYNLVFGGGTKLTVL
As to B4, in experiment [1], the “Agonist activity, % Emax BMP9” value was 35 % Emax BMP9; the “Agonist activity, EC50” value came out at 0.075 nM; the “Agonist activity, EMAX (RLU)” value was 931000 RLU. Further, in experiment [2], the “Agonist activity, % Emax BMP9” value worked out at 35 % Emax BMP9; the “Agonist activity, EC50” value worked out at 0.075 nM; the “Agonist activity, EMAX (RLU)” value was found to be 931000 RLU.

B5: DGL288 (bispecific antibody)
chain: EVQLLESGGGLVQPGGSLRLSCAASGFTFSDYYMTWIRQAPGKGLEWVSSISGGSTYYADSRKGRFTISRDNSENTLYLQMNSLRAEDTAVYYCARDFGVAGWFGQYGMDVWGQGTLVTVSSGGGGSGGGGSGGGGSQSVLTQPPSASGTPGQRVTISCTGSSSNIGAGYDVHWYQQLPGTAPKLLIYRSNQRPSGVPDRFSGSKSGTSASLAISGLRSEDEADYYCSSYAGNYNLVFGGGTKLTVLDKGPSVFPLAPEPKSSEVQLLESGGGLVQPGGSLRLSCAASGFTFSSYAMSWVRQAPGKGLEWVANINQDGSEKNYVDSMRGRFTISRDNSKNTLYLQMNSLRAEDTAVYYCAREFDYWGQGTLVTVTSSGGGGSGGGGSGGGGSQSVLAQPPSASGTPGQRVTISCSGSSSNIGSNYVYWYQQLPGTAPKLLIYGNNKRPSGVPDRFSGSKSGTSASLAISGLRSEDEADYYCAAWDDSLNGRVFGGGTKLTVLDKTHTCPPCPAPEAAGAPSVFLFPPKPKDTLMISRTPEVTCVVVDVSHEDPEVKFNWYVDGVEVHNAKTKPREEQYNSTYRVVSVLTVLHQDWLNGKEYKCKVSNKALPAPIEKTISKAKGQPREPQVYTLPPSRDELTKNQVSLTCLVKGFYPSDIAVEWESNGQPENNYKTTPPVLDSDGSFFLYSKLTVDKSRWQQGNVFSCSVMHEALHNHYTQKSLSLSPG
B5: in experiment [3], the “pSMAD1 ELISA in HUVEC, RLU 15 minutes, at 0 nM (baseline)” value came out at 4.5 RLU; the “pSMAD1 ELISA in HUVEC, RLU 15 minutes, at 0.4 nM” value is 4.9 RLU; the “pSMAD1 ELISA in HUVEC, RLU 15 minutes, at 2 nM” value came out at 6.5 RLU; the “pSMAD1 ELISA in HUVEC, RLU 15 minutes, at 10 nM” value turned out to be 6.7 RLU. In experiment [3], the “pSMAD1 ELISA in HUVEC, RLU 60 minutes, at 0 nM (baseline)” value turned out to be 4.5 RLU; the “pSMAD1 ELISA in HUVEC, RLU 60 minutes, at 0.4 nM” value is 35 RLU; the “pSMAD1 ELISA in HUVEC, RLU 60 minutes, at 2 nM” value was found to be 26.9 RLU; the “pSMAD1 ELISA in HUVEC, RLU 60 minutes, at 10 nM” value was 22.7 RLU. Besides, in experiment [1], the “Agonist activity, % Emax BMP9” value was 76 % Emax BMP9; the “Agonist activity, EC50” value worked out at 0.07 nM; the “Agonist activity, EMAX (RLU)” value amounted to 2e+06 RLU. Moreover, in experiment [2], the “Agonist activity, % Emax BMP9” value was found to be 76 % Emax BMP9; the “Agonist activity, EC50” value is 0.07 nM; the “Agonist activity, EMAX (RLU)” value amounted to 2e+06 RLU.
